Residue numbers refer to the chain shown, from its start.
B1: biAb0011 (bispecific antibody, human IgG4 S228P, kappa)
heavy 1: QVQLQESGPGLVEPSQTLSLTCTVSGYSITSDSAWSWIRQPPGKKLEWIGYIQYSGSTNYNPSLKSRVTISRDTSKNQFSLKLSSVTAADTAVYYCARSVNYYGNSFAVGYWGQGTLVTVSSASTKGPSVFPLAPCSRSTSESTAALGCLVKDYFPEPVTVSWNSGALTSGVHTFPAVLQSSGLYSLSSVVTVPSSSLGTKTYTCNVDHKPSNTKVDKRVESKYGPPCPPCPAPEFLGGPSVFLFPPKPKDTLMISRTPEVTCVVVDVSQEDPEVQFNWYVDGVEVHNAKTKPREEQFNSTYRVVSVLTVLHQDWLNGKEYKCKVSNKGLPSSIEKTISKAKGQPREPQVYTLPPSQEEMTKNQVSLTCLVKGFYPSDIAVEWESNGQPENNYKTTPPVLDSDGSFLLYSKLTVDKSRWQEGNVFSCSVMHEALHNHYTQKSLSLSLGK
light 1: EIVLTQSPATLSLSPGERATLSCRASQGVSDYLHWYQQKPGQAPRLLIKYASQPATGIPARFSGSGSGTDFTLTISSLEPEDFAVYYCQNGHSFPLTFGQGTKLEIKRTVAAPSVFIFPPSDEQLKSGTASVVCLLNNFYPREAKVQWKVDNALQSGNSQESVTEQDSKDSTYSLSSTLTLSKADYEKHKVYACEVTHQGLSSPVTKSFNRGEC
heavy 2: not shown
light 2: DIVMTQTPLSSPVTLGQPASISCRSSQSLVHRQGNTYFHWLQQRPGQPPRLLIYKVSNRFSGVPDRFSGSGAGTDFTLKISRVEAEDVGVYYCSQSTHVPYTFGQGTKLEIKRTVAAPSVFIFPPSDEQLKSGTASVVCLLNNFYPREAKVQWKVDNALQSGNSQESVTEQDSKDSTYSLSSTLTLSKADYEKHKVYACEVTHQGLSSPVTKSFNRGEC
notes: Duobody, constant domain type H (IgG4): anti-FVII(a) arm mAb0875, anti-TLT-1 arm mAb1076; also called mAb0875 x mAb1076
B2: biAb0098 (bispecific antibody, human IgG4 S228P, kappa)
heavy 1: B1 heavy 1 with Q1D, P41F, I49M, A89E, G110D, L117S
light 1: B1 light 1 with V29I, Q42E, A51T, F83V, A84G, Q100A, I106L
heavy 2: not shown
light 2: B1 light 2 with Q33N
notes: Duobody, constant domain type H (IgG4): anti-FVII(a) arm mAb0874, anti-TLT-1 arm mAb1047; also called mAb0874 x mAb1047
B3: biAb0097 (bispecific antibody, human IgG4 S228P, kappa)
heavy 1: DVQLQESGPGLVEPSQSLSLTCTVTGYSITSDSAWSWIRQFPGNKLEWMGYIQYSGSTNYNPSLKSRISVTRDTSKNQFFLRLSSVTAEDTATYYCTRSVNYYGNSFAVGYWGQGTSVTVSSASTKGPSVFPLAPCSRSTSESTAALGCLVKDYFPEPVTVSWNSGALTSGVHTFPAVLQSSGLYSLSSVVTVPSSSLGTKTYTCNVDHKPSNTKVDKRVESKYGPPCPPCPAPEFLGGPSVFLFPPKPKDTLMISRTPEVTCVVVDVSQEDPEVQFNWYVDGVEVHNAKTKPREEQFNSTYRVVSVLTVLHQDWLNGKEYKCKVSNKGLPSSIEKTISKAKGQPREPQVYTLPPSQEEMTKNQVSLTCLVKGFYPSDIAVEWESNGQPENNYKTTPPVLDSDGSFLLYSKLTVDKSRWQEGNVFSCSVMHEALHNHYTQKSLSLSLGK
light 1: B1 light 1 with V29I, Q42E, A51T, F83V, A84G, N90S, Q100A, I106L
heavy 2: not shown
light 2: B1 light 2 with Q33N
notes: Duobody, constant domain type H (IgG4): anti-FVII(a) arm mAb0872, anti-TLT-1 arm mAb1047; also called mAb0872 x mAb1047
B4: biAb0017 (bispecific antibody, human IgG4 S228P, kappa)
heavy 1: B3 heavy 1
light 1: B1 light 1 with V29I, Q42E, A51T, F83V, A84G, N90S, Q100A, I106L
heavy 2: not shown
light 2: B1 light 2 with Q33P
notes: Duobody, constant domain type H (IgG4): anti-FVII(a) arm mAb0872, anti-TLT-1 arm mAb1038; also called mAb0872 x mAb1038
B5: biAb0013 (bispecific antibody, human IgG4 S228P, kappa)
heavy 1: B1 heavy 1 with Q1D, P41F, I49M, A89E, G110D, L117S
light 1: B1 light 1 with V29I, Q42E, A51T, F83V, A84G, Q100A, I106L
heavy 2: not shown
light 2: B1 light 2
notes: Duobody, constant domain type H (IgG4): anti-FVII(a) arm mAb0874, anti-TLT-1 arm mAb1076; also called mAb0874 x mAb1076
B6: biAb0096 (bispecific antibody, human IgG4 S228P, kappa)
heavy 1: B1 heavy 1
light 1: B1 light 1
heavy 2: not shown
light 2: B1 light 2 with Q33N
notes: Duobody, constant domain type H (IgG4): anti-FVII(a) arm mAb0875, anti-TLT-1 arm mAb1047; also called mAb0875 x mAb1047
B7: biAb0018 (bispecific antibody, human IgG4 S228P, kappa)
heavy 1: B1 heavy 1 with Q1D, P41F, I49M, A89E, G110D, L117S
light 1: B1 light 1 with V29I, Q42E, A51T, F83V, A84G, Q100A, I106L
heavy 2: not shown
light 2: B1 light 2 with Q33P
notes: Duobody, constant domain type H (IgG4): anti-FVII(a) arm mAb0874, anti-TLT-1 arm mAb1038; also called mAb0874 x mAb1038
B8: biAb0016 (bispecific antibody, human IgG4 S228P, kappa)
heavy 1: B1 heavy 1
light 1: B1 light 1
heavy 2: not shown
light 2: B1 light 2 with Q33P
notes: Duobody, constant domain type H (IgG4): anti-FVII(a) arm mAb0875, anti-TLT-1 arm mAb1038; also called mAb0875 x mAb1038
B9: biAb0093 (bispecific antibody, human IgG4 S228P, kappa)
heavy 1: B1 heavy 1 with Q1D, P41F, I49M, A89E, G110D, L117S
light 1: B1 light 1 with V29I, Q42E, A51T, F83V, A84G, Q100A, I106L
heavy 2: not shown
light 2: B1 light 2 with Q33N
notes: Duobody, constant domain type H (IgG4): anti-FVII(a) arm mAb0874, anti-TLT-1 arm mAb1049; also called mAb0874 x mAb1049
B10: biAb0012 (bispecific antibody, human IgG4 S228P, kappa)
heavy 1: B3 heavy 1
light 1: B1 light 1 with V29I, Q42E, A51T, F83V, A84G, N90S, Q100A, I106L
heavy 2: not shown
light 2: B1 light 2
notes: Duobody, constant domain type H (IgG4): anti-FVII(a) arm mAb0872, anti-TLT-1 arm mAb1076; also called mAb0872 x mAb1076
B11: biAb0091 (bispecific antibody, human IgG4 S228P, kappa)
heavy 1: B1 heavy 1
light 1: B1 light 1
heavy 2: not shown
light 2: B1 light 2 with Q33N
notes: Duobody, constant domain type H (IgG4): anti-FVII(a) arm mAb0875, anti-TLT-1 arm mAb1049; also called mAb0875 x mAb1049
B12: biAb0092 (bispecific antibody, human IgG4 S228P, kappa)
heavy 1: B3 heavy 1
light 1: B1 light 1 with V29I, Q42E, A51T, F83V, A84G, N90S, Q100A, I106L
heavy 2: not shown
light 2: B1 light 2 with Q33N
notes: Duobody, constant domain type H (IgG4): anti-FVII(a) arm mAb0872, anti-TLT-1 arm mAb1049; also called mAb0872 x mAb1049
B13: mAb0710(OA) (antibody, human IgG4 S228P, kappa)
heavy: B1 heavy 1 with E13K, T30S, P41F, K45G, Y111P, T368S, L370A, L407F, Y409V, K411R
light: B1 light 1 with V29I, A51T
chain: not shown
notes: one-armed (OA) antibody, constant domain type F (knob-in-hole)
B14: mAb0707(OA) (antibody, human IgG4 S228P, kappa)
heavy: B1 heavy 1 with T30S, K45G, Y111P, T368S, L370A, L407F, Y409V, K411R
light: B1 light 1 with V29I, Q42E, A51T
chain: not shown
notes: as for B13

biological target: T1, recombinant human activated FVII (FVIIa) (human, UniProt P08709 61-212; P08709 213-466, ten glutamate residues of the Gla domain may be gamma-carboxylated); experiment: cell-based or functional assay
T1 sequence 1: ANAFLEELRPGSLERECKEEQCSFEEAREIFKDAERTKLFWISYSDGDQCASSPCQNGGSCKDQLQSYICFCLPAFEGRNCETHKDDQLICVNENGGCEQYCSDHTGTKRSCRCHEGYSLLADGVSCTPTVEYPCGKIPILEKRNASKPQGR
T1 sequence 2: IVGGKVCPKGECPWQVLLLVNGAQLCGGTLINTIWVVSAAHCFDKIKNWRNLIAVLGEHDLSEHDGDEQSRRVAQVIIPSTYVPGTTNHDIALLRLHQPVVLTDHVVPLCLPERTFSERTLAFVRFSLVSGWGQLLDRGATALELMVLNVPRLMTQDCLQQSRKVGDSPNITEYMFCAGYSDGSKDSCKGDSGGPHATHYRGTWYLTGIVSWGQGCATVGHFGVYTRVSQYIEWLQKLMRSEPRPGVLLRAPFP

Going from B1 to B2, the “Stimulation (fold): FXa generated by FVIIa with lipidated TLT-1 and 100 nM biAb, relative to free FVIIa” value (“Stimulation (fold) … relative to free FVIIa” for short) falls from 20.3 fold to 15.3 fold.

Compared with B3, B4 is lower in “Stimulation (fold) … relative to free FVIIa” value: 17.4 fold for the first, 13.6 fold for the second.

First: B5
Second: B6
The “Stimulation (fold) … relative to free FVIIa” value of the first is higher: 16 fold for the first, 12.4 fold for the second.

First: B7
Second: B8
The “Stimulation (fold) … relative to free FVIIa” value of the first is lower: 12.8 fold for the first, 17.3 fold for the second.

Compared with B9, B10 is higher in “Stimulation (fold) … relative to free FVIIa” value: 9.6 fold for the first, 22.1 fold for the second.

First: B11
Second: B12
The “Stimulation (fold) … relative to free FVIIa” value of the first is higher: 11.3 fold for the first, 11.2 fold for the second.

biological target: T2, recombinant human activated Factor VII (FVIIa) (human, UniProt P08709 61-212; P08709 213-466, ten glutamate residues of the Gla domain may be gamma-carboxylated); experiment: SPR (Biacore)
T2 construct: chains tethered by a disulfide bond; also called Factor VIIa; rFVIIa
T2 sequence 1: T1 sequence 1
T2 sequence 2: T1 sequence 2

B13 and B14 are within 1.5-fold of each other in Kd: 0.128 nM for the first, 0.106 nM for the second.

biological target: T1, recombinant human activated FVII (FVIIa); experiment: dissociation constant listed with the stimulatory activities; method not given

First: B1
Second: B2
The Kd of the first is 58-fold lower: 0.28 nM for the first, 16.2 nM for the second.

B3 and B4 are the same in Kd: 2.2 nM for the first, 2.2 nM for the second.

Compared with B5, B6 is 58-fold lower in Kd: 16.2 nM for the first, 0.28 nM for the second.

First: B7
Second: B8
The Kd of the first is 58-fold higher: 16.2 nM for the first, 0.28 nM for the second.

Going from B9 to B10, the Kd falls from 16.2 nM to 2.2 nM (7.4-fold). The second binds more tightly here.

Going from B11 to B12, the Kd rises from 0.28 nM to 2.2 nM (7.9-fold).

biological target: T3, sTLT1 (SEQ ID No: 3 with six histidine residues added at the C-terminus) (human, UniProt Q86YW5 16-162); experiment: dissociation constant listed with the stimulatory activities; value of the anti-TLT-1 arm
T3 construct: Soluble TLT-1 used in SPR
T3 sequence: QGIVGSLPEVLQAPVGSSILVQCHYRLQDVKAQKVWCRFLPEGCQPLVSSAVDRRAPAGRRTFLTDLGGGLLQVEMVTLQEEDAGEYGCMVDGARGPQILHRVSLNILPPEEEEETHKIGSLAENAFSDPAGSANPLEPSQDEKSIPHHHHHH

First: B1
Second: B2
The Kd of the first is 26-fold lower: 2.9 nM for the first, 75 nM for the second. The first binds more tightly here.

First: B3
Second: B4
The Kd of the first is 3.9-fold higher: 75 nM for the first, 19 nM for the second. The second binds more tightly here.

Compared with B5, B6 is 26-fold higher in Kd: 2.9 nM for the first, 75 nM for the second. The first binds more tightly here.

B7 and B8 are the same in Kd: 19 nM for the first, 19 nM for the second.

Going from B9 to B10, the Kd falls from 320 nM to 2.9 nM (110-fold). The second binds more tightly here.

B11 and B12 are the same in Kd: 320 nM for the first, 320 nM for the second.

biological target: T2, recombinant human activated Factor VII …; experiment: cell-based or functional assay

Compared with B13, B14 is lower in “AT inhibition (kinh %)” value: 136% for the first, 129% for the second.

B13 and B14 are the same in “TGT activity (%% FVIIa)” value: 102% for the first, 102% for the second.

Reference: US20220064329A1 (Novo Nordisk, published 2022)
